The experiment has as its target mouse pendrin (SLC26A4), full length (mouse). Kind of experiment: cryo-EM structure; single-particle cryo-EM of purified pendrin in 0.02% GDN, about 1.7 mg/mL, pH 8.0-8.3; samples in 150 mM NaCl (pendrin-Cl), NaHCO3 (pendrin-HCO3), Cl/HCO3, Cl/I and HCO3/I; symmetric and asymmetric homodimers.

Take “mouse pendrin (SLC26A4), full length (natural protein)”: the stoichiometry N (as a rule, a count of units in the complex or per binding partner) turned out to be 2.

(Values after article PMC10213058.)
